Experiment: soluble fraction after stress (log2 fold change); higher = more stays soluble; pooled small domains, quantitative proteomics
Settings: stress: 75 degC
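Also: 20 min heating vs room temperature control held 20 min.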

| Sequence | soluble fraction (log2) |
| --- | --- |
| HMVEYFDDENLDAFIGRESDSYTEKEIEQFREILYTMNQKEVADWNRSLTIRGINIPNDLKDEMIMMI | -0.225 |
| HMSELTKEIGKRIHDFRKSRGLNQEELARLIYKSKATLSKYEKGEIAIDLDTLKQLALALHVRMEQLLPPT | -1.5 |
| HMNMANFARIRLILELHDRGMSQDEISRSRHMSRSTITTVLRTARKKGITYAGIRKLDDAALQKLFFPDR | -4.02 |
| HMKQVEVESVIGKSEEAANSILTKAGLKVNIGYKEDSSKPTDTVLSQDPAPGEKVDEGTTVTIVVNNYKKP | 0.139 |
| HMLSPAQSLLLRTAARRPDGRVIPPDTLRGGARVKVLTSLLQRGWIEPVDGGHVLTDAGYAAIG | -0.819 |
| HMETEAGIKAYLSSSMIKGIGPVTAQRIVERFGKRTLYVLDQMPEKLLDISGISEAKLEEILNGYRKS | -0.536 |
| HMYEVVPNMKGLSYEQAATALRTAGLEPELSDSIYDDKTRPGTVLEQSPRANTKVKPGRTVYLTVNAF | 0.0171 |
| HMSVPRVWTDIQGRRVKGDFEGLRGDLVVLRVGGKSYAFPLVRLIASDQAYARSLVAGNPSK | -1.5 |
| HMGKVNTRNRNEGKFYKNGKKKPANWEYRFEAAPVNGKRQQISDAGYPTEKAAYEAGIAAYEKYNSAGSVN | -0.0957 |
| HMSSDEEQLATLTRLLQKQEQIIQTLGPRNPMVSLQQYANTITKVIEMAGFKDTSQFINSQIP | 0.0951 |
| HMKNANGYGSITKLKGNRRKPYMVRITVGRDENGFPIRKVLGYYSSKANAVAALSDYNREPYDI | -1.78 |
| HMSDSAFAEMRRELEALRNSNAEYERALSNFFPEAEDKALAAEAFYQNREYDELVAEREEANVIDGLKR | -0.198 |
| HMASLSRRELEVLELLALRLTVKEVAERLVISELTAKRHTSNIYQKLGVNRRRDALAAAQARGLLGAR | -3.18 |
| HMTPNATWQDDAQSLLRDLIQHQPVLIQISAAKRLRDQAEQISRITGGDTVTRDHVEAAGHALGMGVT | -0.0233 |
| HMQISDESSIAKIADEVISEFPSQVSEFRSGKEKVLQFLIGQVMKKTKGKANPQITAKILREKLS | 0.00566 |
| HMFQEGLVAPPAYTRPESFRGWEVPEILRSGNFPAIAKWQHEESLRLTRERRPAMLEAYERRT | -0.107 |
| HMREEQELFRKLLEVNGIGPKVAAGMLAGGRPEDVVSAIRREDVAWLTKLPGIGRKTAQRIVLDLKDKLD | -0.331 |
| HMDPSKLVEVQEPVSMKALSEGLGIKVTELIATFAFKLKIGGKNINSMLSNDEVELVALDLERNIKVV | 0.258 |
| HMSDTSAIEKIIDEVLSDESSQKAINDIKNGNEKVYGFLVGQVMKKSQGKANPGLVQKMLREKIAK | 0.116 |

| Sequence | soluble fraction (log2) |
| --- | --- |
| HMSDSISLTLNGDLRRFRAHATIADLVRDIGLDPVKVAVERNLEIVSRSTLEDVVLADGDRLEIVHFV | -2.23 |
| HMLPGERFKVKIAQAGKEKKQGIGYLNDGTMVVIENGIEKVGEEVEAVVIKVIQSSAGKIIFSEVAK | 0.0862 |
| HMLGWEDVIQFEEVKGYGQHIWRDGNHLYYVTEEGGIAPQRVVYELPNELFALLESGERTQLEILSKLQ | -2.51 |
| HMAVSSYSVKRYIRNMIQAEDPSAPFSDEALRLALLAHGIAVSRRVVTKYRMAMDIPSSSQRRKR | -1.41 |
| HMQELVPGKVFEGTVTEMKNGQVTLGLSDGKTISARMEQGVSLAKGQPMLFEVKSNTGEQIAIRPVVL | 0.263 |
| HMDAINYEDFQLLIKQRGSFKVAFEDIMFSTKVAIEKKEDFYDFVTKLIDNGFNNMAYNYLEGFQD | -2.07 |
| HMTVGEAHLEEVYLKVLKQVEEQGTALIRTTDVETGRPAAGIRRRYMRGTLPDEWVAKFEALPGWTWAPG | -3.04 |
| HMPRYQQIARQLKTAIEHGELKPGARLPSSRTWSQELGISRSTVESAYTELVAQGWLERRGQAGTFVSAQL | -1.04 |
| HMKLIIVPNLVGQSRRSVEISLQQIGLRIDTVYTEFNPDYPKGTVAWQFPKSGDHIKKGMGLQITVSQG | -0.391 |
| HMVEREYRLEVPPEAEGKRLDQFLVNQPVQLSRSQVQHLIQNGLVLVNAKTRRSSYRVHTGDIIEMQVPA | 0.121 |
| HMSPREDQQSRKQHILEAAAVLFAERGYYKTTTADVARAVGVTQPYVFHFFKSKEELYLAVL | 0.163 |
| HMVDYYEILGVSPDASRKDIENAWRKKMREAHPDMGGSEDKAQLLNEAHKVLSDESARAEYDASR | 0.181 |
| HMEIPTEEILKQKLYYSISEVASWFKVNTSLLRYWENEFDILQPRKTRKGDRLFRVEDIKNLQLIYLL | 0.26 |
| HMVSDAELTSQATTAITAYPGTSVEVKEGQAHLSGTFATEADKQAAIDALKKIQDVKDVHDMATV | 0.152 |
| HMLAFDKDDSGAVAEIILVLGRYWMDFSHKKYPAAEGVALRHKGLSHIFTVLRPYLSTPASELIGERLRR | -0.0618 |
| HMNEMEWVAKLIDQLPERERMILQLREIEQYEFDQIASLMEIPEGTVRVYLSRIRKKIKKQFIEIQSH | 0.0404 |
| HMTVVLPGESLTVNIIQEGKELGQGVGYLDDGTMVVIEDGRRYIDQTIEVTVTRVLQTVAGRMIFAQLT | -4.46 |
| HMAVTEVKTTAVVNMRSSDSEKADKLGKAQIGDTFRVLEQRANGWTKLTDGTQEFFIKSEYLEAIA | 0.109 |
| HMSDIATLVPGPTDAELAASALRGLDAALDADTPVRLSLGEPGGEVEVPRSVLAALARVLDSFAHGEGVTL | -0.0408 |

— the domain aggregation screens of Martell et al. (2025)
